Where two headings read alike, the source gives them in different places. Ends that are not written are not given here.
Columns and labels:
bEnd.3 cell monolayers = test system: bEnd.3 cell monolayers
Experimental: Figure 4 PPCs translocation across a bEnd.3 in vitro BBB model. (A) bEnd.3 in vitro BBB model transwell system. The insert, or apex, corresponds to the blood side, while the base (bottom chamber) corresponds to the brain side. (B) After formation of a monolayer, 10 μM of each conjugate was added to the apical side of the tissue culture inserts. After incubation for 24 h, samples from the basolateral side were collected, and the percentage of translocation of each conjugate (black) was calculated. FD4 permeability (gray) was measured to determine monolayer integrity post-PPCs translocation.
After 24 h incubation with conjugates, an in vitro integrity assay was performed.[19] Briefly, cells were washed twice with PBS and once with DMEM medium without phenol red. Then, previously diluted 4 kDa fluorescein isothiocyanate-dextran (FD4) (Sigma-Aldrich, Spain) in DMEM without phenol red to an absorbance of 0.1 was added to the apical side and incubated for 2 h. Samples were collected from the apical and basolateral side, and fluorescence intensity was measured with λext = 493 nm and λem = 520 nm, using a Varioskan Lux plate reader. The integrity of the barrier was determined as follows: [drawing 2] 2 where Fi is the recovered fluorescence intensity, Fcells is the recovered fluorescence intensity from cells without FD4 incubation, FFD4 is the fluorescence intensity of total FD4 initially added to the transwell apical side, and FMedium is the fluorescence intensity of DMEM medium without phenol red.

HIV-1NL4-3 = experiment: In vitro inhibition of HIV-1NL4-3 infection of TZM-bl cells (luciferase reporter); assay type: cell-based; conditions: for IC50: TZM-bl cells; for HIV inhibition (in words): in vitro, absence of photoactivation
Experimental: Viral supernatants harvested from pNL4-3-transfected HEK293T cells were titered through the Reed-Muench method[56] based on HIV-1NL4–3 infectivity against TZM-bl cell cultures. TZM-bl cells were seeded at 2 × 10^4 cells/well in tissue culture-treated 96-well microplates from Corning (Corning, NY, USA), and incubated for 24 h. Cells were then incubated with 2-fold serial dilutions of viral supernatants for 3 h, after which the supernatant was replaced with fresh complete medium. After 45 h, TZM-bl cell infection was quantified through luciferase reporter-gene expression levels, under the control of an HIV-1 TAT-dependent LTR promoter[57] using the Luc-Screen luciferase chemiluminescence detection system. Luminescence was measured in an Infinite M200 microplate reader from Tecan (Männedorf, Switzerland). […] Titration was performed with at least four replicates to allow accurate estimation of TCID50 in viral supernatants.
The inhibitory activity of conjugates on HIV-1NL4–3 entry into TZM-bl cells was evaluated as previously described.[58] TZM-bl cells were seeded at 2 × 10^4 cells/well in tissue culture-treated 96-well microplates and incubated for 24 h. HIV-1NL4–3 viral supernatants (100 or 10 TCID50/well) were then incubated for 1 h with 2-fold serial dilutions of either nonconjugated peptide and porphyrins or conjugates, after which the infection mixture was added to TZM-bl cells. Untreated cells (in the absence of peptide–porphyrin conjugate) were used as control. Virions were incubated with cells for 3 h, after which cells were washed to remove unbound virions and new medium was added. After 45 h, infection was quantified by the Luc-Screen chemiluminescence assay. Measurements were performed in an Infinite M200 microplate reader. […] At least three independent experiments were performed for each assay.

human erythrocytes = experiment: Hemolysis assay; assay type: cell-based
Experimental: Plates were incubated for 1 h at 37 °C with 100 rpm stirring, then centrifuged for 5 min at 4000 rpm, 4 °C, and supernatants were transferred to a 96-well flat-bottom polystyrene plate (Corning). Hemolysis was assessed by hemoglobin (Hb) release, measured by absorbance at 415 nm in a Varioskan LUXTM microplate reader (Thermo Fisher Scientific, Inc.). As porphyrin and Hb spectra are partially overlapping, to exclude porphyrin interference in Hb quantification a blank reading of each PPC (no hRBCs, TN buffer +1% DMSO) was subtracted from each measurement. TN buffer (+1% DMSO, no conjugate) and hRBCs with 1% Triton X-100 were used as negative and positive controls, respectively. Hemolysis (%) was determined using the following equation: [drawing 6] 6 where Abstreated is the absorbance of hRBC treated with the conjugates, Absconjugate is the absorbance from each conjugate concentration without hRBCs, AbsTriton is the absorbance of Triton X-100 treated hRBCs, and Absbuffer is the absorbance of TN buffer alone. HC50 values were determined by GraphPad Prism 8 software using a log(inhibitor) vs normalized response (variable slope). Experiments were performed using 3 different blood donors.

TZM-bl cells = assay type: cell-based
Experimental: TZM-bl Cell Viability Studies
The cytotoxic effects of each PPC on TZM-bl cell cultures were assessed to ensure that HIV inhibition was a result of the compounds effect on the virus and not on the host cells used in the assay. A resazurin reduction fluorometric assay was performed. Resazurin, the active compound in alamarBlue®, is a blue dye that can be reduced to a pink fluorescent intermediate, resorufin, as a result of cell metabolic activity.6 TZM-bl cells were seeded at 2x10^4 cells/well in tissue culture-treated 96-well microplates and incubated for 24 h. Cells were then incubated with serial dilutions (2-fold) of single peptide and porphyrins, or PPC, for 3 h, after which the mixture was replaced with fresh complete medium. Untreated cells (in the absence of peptide-porphyrin combinations) were used as a control. After 42 h, media was replaced with alamarBlue® reagent and incubated for an additional 3 h. Resazurin reduction was quantified by resorufin fluorescent emission intensity, measured in an Infinite M200 microplate reader. Fluorescence emission intensity was collected at 590 nm, using a fixed λ exc of 560 nm. Excitation and emission slits were 9 and 20 nm, respectively. Cell viability was calculated through the following formalism: […]
where I EI corresponds to the resorufin fluorescence emission intensity in the presence of EIs or combination, I control to the fluorescence emission intensity in the absence of EIs and I background to the background fluorescence emission from the non-reduced […]
P5, P4-MP, MP-L-P3 and P4-L-M - are presented here.
TZM-bl cell viability on the concentration range tested.
(1 picture or pasted object on this page, not shown here)
Figure S7. PPCs cytotoxic effects against TZM-bl cells. A resazurin reduction fluorometric assay, dependent on the cell metabolic activity, was used. Cell viability, normalized to the control in the absence of PPC, was measured against three concentrations of each individual PPC: MP-P3 (black), MP-P5 (white), P4-MP (red), MP-L-P3 (blue) and P4-L-MP (green).

[1] = 10 TCDI50 per well (approximate physiological conditions of HIV brain infection), read-out: IC50 HIV inhibition, 10 TCDI50
[2] = 100 TCDI50 per well, no-light, read-out: IC50 HIV inhibition, 100 TCDI50

Substance	% Base (RFI), FD4 Permeability (monolayer integrity post-translocation) (bEnd.3 cell monolayers) [%]	IC50 (HIV-1NL4-3; [1]) [µM]	IC50 (HIV-1NL4-3; [2]) [µM]	HIV inhibition (in words) (HIV-1NL4-3)	Hemolytic activity (in words) (human erythrocytes)	TZM-bl cell viability (in words) (TZM-bl cells)
P4-MP: mesoporphyrin IX coupled to the C-terminal Lys side chain of peptide P4 (AGILKRWK-amide) (AGILKRWK(mesoporphyrin IX)-NH2)	15.3	5.77 ± 1.17	34 ± 1.25	inhibit HIV in vitro	totally lacked hemolytic activity	did not alter significantly
MP-P5: mesoporphyrin IX coupled to the N-terminal amino group of peptide P5 (SGTQEEY-amide) ({mesoporphyrin IX}-SGTQEEY-NH2)	9.4	10 ± 2.9	33.1 ± 1.38	inhibit HIV in vitro	totally lacked hemolytic activity	did not alter significantly
